Reference: US10648979B2, “Molecular probes for detecting gram-negative bacteria in vitro and in vivo” (priority 2014, dated 2020)
Bridge positions count the residues as written; N and C are the ends. Square brackets hold non-standard residues; d marks the D form. Peptide text beside a SMILES is read from it. * marks the point of attachment. ξ: configuration not given here. NBD = O=[N+]([O-])c1ccc(*)c2nonc12; dDab = NCC[C@@H](N)C(=O)O; Dab = NCC[C@H](N)C(=O)O; AEEA = NCCOCCOCC(=O)O; ξDab = NCCC(N)C(=O)O

Key:
[1] = system: panel of bacteria (P. aeruginosa, A. baumannii, S. maltophilia, K. pneumoniae, E. coli, H. influenzae, MRSA, MSSA, S. pneumoniae); experiment: In vitro labelling of bacteria by laser scanning confocal microscopy; format: cell-based
Description: In vitro labelling was assessed on benchtop confocal in the presence of compound with bacteria and labelling was compared to NBD-UBINle which served as a reference control for bacterial labelling. […] For the ex vivo and in vivo ovine lung experiments each compound was assessed in a control lung segment (instilled with 2 ml PBS) or a bacterial segment (instilled with 2 ml of 2 optical density of bacteria). Following bacterial instillation, the compound was administered to the segment of interest and this was imaged by probe based confocal laser endomicroscopy (FCFM).

[2] = system: bacteria in ovine lung; experiment: Automated image processing of entire FCFM videos from ovine lung; details: 80 spots per frame threshold
Excerpt: FIG. 19: Image Processing Algorithms delineate ‘positive’ and ‘negative’ frames from FCFM data A) raw data for a frame that is deemed positive or negative. B) Without pre-processing, spot-detection is ineffective. Following estimation of background noise C), high-pass filtering D) and appropriate thresholding E), the current algorithm detect minimal punctate signal in negative frames F).
Analysis of NBD-UBIdend videos with thresholding at 80 spots per frame and an arbitrary cut-off of 10% enables objective detection of bacteria using a combination of Laplacian of Gaussian (LoG) and Difference of Gaussians (DoG) positive frames. […]
We have begun to develop bespoke image analysis/processing strategies to perform rapid real-time objective analysis of the large datasets generated by the probe/FCFM platform. […] These signal and image processing algorithms will be rapidly iterated in readiness for clinical application, and we expect significant components of machine-learning to be incorporated into further optimisation of NBD-UBIdend and NBD-PMX datasets.
Spots are enhanced in an image by convolving with a LoG or DoG filter. […] Finally, spots are detected with LoG or DoG. […]

[3] = Rodent single dose intratracheal toxicity assessment; format: in vivo, Mice; parameters: Creatinine / Bilirubin / Albumin: unit not given here

CC(C)C[C@@H]1NC(=O)[C@@H](Cc2ccccc2)NC(=O)[C@@H](CCN)NC(=O)C(NC(=O)[C@H](CCN)NC(=O)[C@@H](NC(=O)COCCOCCNc2ccc([N+](=O)[O-])c3nonc23)[C@@H](C)O)CCNC(=O)[C@@H]([C@H](C)O)NC(=O)[C@H](CCN)NC(=O)[C@H](CCN)NC1=O (some centres unmarked) [NBD-PMX] ({NBD-AEEA}-T[Dab][ξDab][dDab][dF]L[Dab][Dab][dT]; lactam 3-C)
labelling of Gram-positive bacteria ([1]; 1 μM): minimal/no labelling
fluorescence on Gram-negative versus Gram-positive bacteria ([1]; 1 μM, p<0.05): significantly higher fluorescence on Gram-negative bacteria
bacterial labelling ([1]; Pseudomonas aeruginosa (PA) incubated with A549 cells): allows bacterial labelling
detection by automated image processing (percentage positive frames, YES/NO) [2]: unequivocal detection of bacteria and Gram status
ALP ([3]; 48 hours): 107.7 ± 17.3 u/l
ALT ([3]; 48 hours): 36.0 ± 9.0 u/l
Albumin ([3]; 48 hours): 23.7 ± 0.3
BALF ([3]; 48 hours): 509.0 ± 270.2 Cells/ul
Bilirubin ([3]; 48 hours): 1.2 ± 0.4
Creatinine ([3]; 48 hours): 16.3 ± 8.8
Cytospin (% of Neutrophils) ([3]; 48 hours): 0%
Cytospin (% of Red Blood Cells) ([3]; 48 hours): 3.9%
PenH value ([3]; 48 hours): 0.5 ± 0.05
Cytospin (% of Mononuclear cells) ([3]; 48 hours, single intratracheal 100 μg/25 g mouse): 96.1%
ALP ([3]; 14 days): 126.3 ± 8.5 u/l
ALT ([3]; 14 days): 40.3 ± 4.8 u/l
Albumin ([3]; 14 days): 25.3 ± 0.7
BALF ([3]; 14 days): 542.0 ± 84.7 Cells/ul
Bilirubin ([3]; 14 days): 1.2 ± 0.4
Creatinine ([3]; 14 days): 9.7 ± 0.3
Cytospin (% of Neutrophils) ([3]; 14 days): 0%
Cytospin (% of Red Blood Cells) ([3]; 14 days): 2.3%
PenH value ([3]; 14 days): 0.5 ± 0.07
Cytospin (% of Mononuclear cells) ([3]; 14 days, single intratracheal 100 μg/25 g mouse): 93.0%
organ toxicity (histology) ([3]; single instillation, 48 hours and 14 days, compared to PBS control): no organ toxicity
toxicity ([3]; single intratracheal 100 μg/25 g mouse, 48 hours and 14 days): no toxicity
